{"source": "patent US20110287023A1", "about": "(AstraZeneca / MedImmune, published 2011)", "binders": {"B1": {"name": "complex of thymus HMGB1 with CpG-A DNA (other, bovine, UniProt P10103 2-215, looked up)", "chain": "GKGDPKKPRGKMSSYAFFVQTCREEHKKKHPDASVNFSEFSKKCSERWKTMSAKEKGKFEDMAKADKARYEREMKTYIPPKGETKKKFKDPNAPKRPPSAFFLFCSEYRPKIKGEHPGLSIGDVAKKLGEMWNNTAADDKQPYEKKAAKLKEKYEKDIAAYRAKGKPDAAKKGVVKAEKSKKKKEEEEDEEDEEDEEEEEDEEDEEEEEDDDDE", "notes": "also called HMGB1/CpG complex; HMGB1/CpG A complex"}, "B2": {"name": "human anti-HMG1 antibody S12 (antibody, IgG1, V domains shown)", "VH": "EVQLLESGGGLVQPGGSLRLSCAASGFTFSKYIMHWVRQAPGKGLEWVSGIVPSGGLTEYADSVKGRFTISRDNSKNTLYLQMNSLRAEDTATYYCAKEIFGQFDYWGQGTLVTVSS", "VL": "AQSALTQPPSVSAAPRQRVTISCSGSTSNIGNNAVTWYQYFPGKAPKLLIYSDNQRPSGVPDRFSGSKSGTSASLAITGLQAEDEADYYCQSYDRGLSVVFGGGTKLTVL", "notes": "full length IgG1 made from a human Fab phage clone"}, "B3": {"name": "human anti-HMG1 antibody G16 (antibody, IgG1, V domains shown)", "VH": "EVQLLESGGGLVQPGGSLRLSCAASGFTFSWYKMTWVRQAPGKGLEWVSSISPSGGFTSYADSVKGRFTISRDNSKNTLYLQMNSLRAEDTAVYYCARDLDIRHAFDIWGQGTMVTVSS", "VL": "DIQMTQSPGTLSLSPGESGTLSCRASESVSSRHFAWYQQKPGQAPRLLIYGASSRPTGIPDRFSGSGSGTDFTLTLSRLEPEDFAVYFCQYYGSSPYTFGGGTKVEMK", "notes": "as for B2"}}, "key": {"[1]": {"biological_target": "T1, mouse RAGE/Fc fusion protein (mouse, UniProt Q62151 24-342, limits assumed)", "T1 construct": "not shown: Fc part, not described", "T1 sequence (Q62151 24-342 limits assumed)": "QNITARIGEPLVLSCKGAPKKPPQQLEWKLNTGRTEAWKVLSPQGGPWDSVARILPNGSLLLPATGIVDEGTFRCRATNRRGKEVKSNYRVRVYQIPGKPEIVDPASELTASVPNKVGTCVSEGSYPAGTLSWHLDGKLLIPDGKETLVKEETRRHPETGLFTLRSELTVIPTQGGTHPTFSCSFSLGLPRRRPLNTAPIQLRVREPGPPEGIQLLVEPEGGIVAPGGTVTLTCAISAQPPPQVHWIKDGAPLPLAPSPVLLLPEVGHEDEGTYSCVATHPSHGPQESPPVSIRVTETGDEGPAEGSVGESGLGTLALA", "assay": "ELISA (right panel): RAGE-Fc immobilized, HMGB1 titrated in the presence of 0.03 µM CpG-A"}, "[2]": {"biological_target": "T2, HMG1 B Box peptide amino acids 150-183", "T2 peptide": "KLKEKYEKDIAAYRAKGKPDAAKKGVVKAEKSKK", "assay": "ELISA, HMG1 B Box peptide 150-183 coated at 10 ug/ml, antibody titrated, anti-human IgG-HRP, OD 450", "method": "(§1) The plate was then blocked with 4% milk powder dissolved in PBS at 37° C. for 1 hour. The blocking solution was removed and replaced with human anti-HMG1 antibodies at various concentrations (see FIGS. 5A-B). […] HRP activity was detected with Sureblue HRP substrate (KPL). Plates were read at 450 nm using a Kinetic Microplate Reader (Molecular Devices). […] After washing and blocking with 1% BSA in PBS, the biotinylated peptides were individually added into the avidin coated wells and incubated for 30 min at room temperature. The serial diluted antibody G4, S16 and S6 at the initial concentration at 10 μg/ml were then transferred into the wells followed by adding mouse anti human IgG-HRP conjugate (Pierce). Detection was accomplished by adding 50 μl of tetramethylbenzidine (TMB) substrate (KPL) and the absorbance was read at 450 nm."}, "[3]": {"biological_target": "T3, HMG1 purified from calf (bovine) thymus (bovine, UniProt P10103 2-215)", "T3 construct": "also called Calf thymus HMGB1; thymus HMG1", "T3 sequence (looked up)": "B1 chain", "assay": "direct ELISA, calf thymus HMGB1 coated at 5 ug/mL, antibody at 10 ug/mL, anti-human kappa/lambda-HRP, OD 490", "method": "(§2) Binding to HMG1 vs. HMG2: Ultra high-binding ELISA plates (ThermoLab systems, #3855) were coated with either 5 ug/mL of Calf thymus HMGB1 or HMBG2 diluted in 10 mM Phosphate buffered saline (PBS), pH 7.2 and incubate overnight at 4 degrees. The plates were washed twice with Ca and Mg free PBS and 100 microliters of anti-HMGB1 antibody diluted in 10 mM PBS, pH 7.2+1% bovine serum albumin (BSA) to a final concentration of 10 ug/mL was added to each well and the plates were incubated 1 hour at room temperature. The wells were washed three times with 100 μl of PBS, pH 7.2. HRP labeled goat-anti-human IgG Kappa-chain (KPL, #14-10-10) and goat-anti-human IgG Lambda-chain (KPL, #14-10-11) were diluted in 10 mM PBS+1% BSA 1:1000 and 100 μl were added to each well and incubated for 1 hour at room temperature. The wells were then washed three times with 100 μl of PBS, pH 7.2. OPD substrate (Pierce chemical company, #34006) was prepared following the manufacturers instructions and 100 μl of prepared substrate was added to each well and the plates incubated at room temperature in the dark for 20-30 minutes. The reaction was stopped with the addition of 100 μl of 2M H₂SO₄, and the plates read on a plate reader at a wavelength of 490 nm."}, "[4]": {"biological_target": "T4, HMG2 coated on ELISA plates (Bos taurus (Bovine), UniProt P40673 2-209)", "T4 construct": "also called HMGB2; HMBG2", "T4 sequence": "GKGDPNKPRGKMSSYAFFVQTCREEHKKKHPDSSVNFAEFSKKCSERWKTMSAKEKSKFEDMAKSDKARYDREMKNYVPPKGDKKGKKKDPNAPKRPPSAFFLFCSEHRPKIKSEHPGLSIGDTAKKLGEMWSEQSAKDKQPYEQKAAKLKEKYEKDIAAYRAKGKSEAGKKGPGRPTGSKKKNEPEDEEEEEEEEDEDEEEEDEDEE", "assay": "direct ELISA, HMGB2 coated at 5 ug/mL, antibody at 10 ug/mL, anti-human kappa/lambda-HRP, OD 490", "method": "as §2"}, "[5]": {"biological_target": "T5, recombinant HMG1 produced in E. coli as a calmodulin binding protein (CBP) fusion (human)", "assay": "cell-based or functional assay"}, "[6]": {"biological_target": "T6, HMG1 B Box peptide amino acids 91-169", "T6 construct": "also called HMG1 peptide 91-169", "T6 peptide": "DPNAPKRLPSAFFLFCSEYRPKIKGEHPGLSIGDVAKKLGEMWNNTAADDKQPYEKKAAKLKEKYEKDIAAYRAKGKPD", "assay": "ELISA, HMG1 B Box peptide 91-169 coated at 10 ug/ml, antibody titrated, anti-human IgG-HRP, OD 450", "method": "as §1"}, "[7]": {"biological_target": "T2, HMG1 B Box peptide amino acids 150-183", "assay": "ELISA, HMG1 B Box peptide 150-183 coated at 10 ug/ml, antibody titrated, OD 450", "method": "as §1"}, "[8]": {"biological_target": "T5, recombinant HMG1 produced in E. coli as …", "assay": "BIAcore 3000, mAb amine-coupled to CM5, HMG1 injected, steady-state model", "method": "HMG1 Binding Affinity via BIAcore Analysis: All experiments were performed on a BIAcore 3000 instrument (BIAcore, Inc., Piscataway, N.J.). Briefly, each mAb was immobilized to a CM5 sensor chip using a standard amine coupling chemistry. Separately a reference (control) flow cell was also prepared. Two-fold, serial dilutions of HMG1 in instrument buffer were sequentially injected at a slow flow rate over the individual mAb and reference flow-cell surfaces. Following the binding and dissociation of HMG1, the mAbs surfaces were regenerated with a brief pulse of 1M NaCl-50 mM NaOH. At the end of each experiment, the binding curves were evaluated using a steady-state model available through the BIAevaluation software supplied by BIAcore, Inc. (Piscataway, N.J.)."}, "[9]": {"biological_target": "T6, HMG1 B Box peptide amino acids 91-169", "assay": "ELISA, HMG1 B Box peptide 91-169 coated at 10 ug/ml, antibody titrated, OD 450", "method": "as §1"}, "[10]": {"biological_target": "T7, HMGB1 in human brain tissue of multiple sclerosis plaques (human, UniProt P09429 1-215)", "T7 construct": "whole, on cells; tissue staining; also called HMGB1 in MS plaques", "T7 sequence (looked up)": "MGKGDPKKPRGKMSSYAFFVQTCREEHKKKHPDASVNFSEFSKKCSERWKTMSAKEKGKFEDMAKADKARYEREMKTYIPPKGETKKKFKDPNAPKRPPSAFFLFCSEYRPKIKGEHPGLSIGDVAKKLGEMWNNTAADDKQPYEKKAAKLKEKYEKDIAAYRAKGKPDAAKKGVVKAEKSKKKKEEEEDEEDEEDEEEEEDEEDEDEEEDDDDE", "assay": "staining of human brain tissue"}}, "data": [{"binder": "B1", "values": [{"measurement": "EC50 (read off the curve)", "setting": "[1]", "value": "~100", "unit": "nM"}]}, {"binder": "B2", "values": [{"measurement": "binding result", "setting": "[2]", "value": "binds"}, {"measurement": "binding result", "setting": "[3]", "value": "binds"}, {"measurement": "binding result", "setting": "[4]", "value": "binds"}, {"measurement": "IC50 IL-6", "setting": "[5]", "value": 1.67, "unit": "nM"}, {"measurement": "binding result", "setting": "[6]", "value": "binds"}]}, {"binder": "B3", "values": [{"measurement": "binding result", "setting": "[7]", "value": "no binding (tested: 10 ug/ml (log 1.0))"}, {"measurement": "Kd", "setting": "[8]", "value": 22, "unit": "nM"}, {"measurement": "binding result", "setting": "[9]", "value": "no binding (tested: 10 ug/ml (log 1.0))"}, {"measurement": "binding result", "setting": "[10]", "value": "binds"}, {"measurement": "IC50 IL-6", "setting": "[5]", "value": 1.06, "unit": "nM"}, {"measurement": "IC50 NO", "setting": "[5]", "value": 22, "unit": "µg/mL"}]}]}
